The numbers were not newly measured in patent US20020001615A1, “Combined interferon alfa and lipsosmal-encapsulated all-trans retinoic acid, including preparation and use” (Aronex Pharmaceuticals, Inc., priority 2000, published 2002), which cites them from elsewhere.

Read-outs that look alike come from different tables or passages of the source.

For series [1] the following is noted: after three months on therapy, concomitant IFN.

As to `CC1=C(/C=C/C(C)=C/C=C/C(C)=C/C(=O)O)C(C)(C)CCC1` [ATRA, all-trans retinoic acid], in series [1], the “peak levels of atra in the serum” value was “declined”.

For Interferon alfa-2b, the “stable for (time)” value (at 30° C.) is “up to 14 days” and the “stable for (time)” value (at 35° C.) is “up to 7 days”.
